B1: CPEB3 Ribozyme (parent)
chain: GGGGGCCACAGCAGAAGCGUUCACGUCGCGGCCCCUGUCAGAUUCUGGUGAAUCUGCGAAUUCUGCUGU

Variants of: B1
Test: self-cleavage, relative activity (ratio to wild type); higher = more cleavage; co-transcriptional

In order of rising self-cleavage:
1. G11A A16C  0.0873
2. G11C G28A  0.0877
3. G11A G19U  0.088
4. G11C C27U  0.0897
5. G11C C18A  0.0969
6. G11U A16C  0.101
7. G11C U38G  0.113
8. G11A G17A  0.119
9. A10U G19C  0.119
10. G11A G14A  0.119
11. G11C C29U  0.12
12. G11A G17C  0.122
13. A10U U20A  0.122
14. G11A C22A  0.127
15. G11A G19C  0.133
16. G11C G28C  0.137
17. G11C G28U  0.137
18. G11C C29G  0.139
19. G11A G17U  0.142
20. G11A U38G  0.142
21. G11C G17C  0.143
22. G11C G17U  0.144
23. G11U A13C  0.146
24. G11C G25A  0.149
25. A10U G19A  0.15
26. A10U U38G  0.154
27. G11A U20G  0.154
28. G11A C24G  0.16
29. A10U G17C  0.168
30. G11C C27A  0.177
31. G11C G25C  0.177
32. G11C A40C  0.179
33. G11C C29A  0.181
34. G11U A13U  0.184
35. G11C A15U  0.188
36. A10U U20G  0.19
37. G11A C22U  0.191
38. G11C G41A  0.209
39. G11C C35G  0.209
40. G11A U20C  0.213
41. A10U U20C  0.232
42. G11A C35A  0.242
43. G11C U55C  0.243
44. G11C A60U  0.243
45. G11C C18U  0.246
46. G11C C39A  0.257
47. G11A C24U  0.259
48. G11C A40U  0.26
49. G11C C54G  0.261
50. A10U G31C  0.262
51. G11A G14C  0.267
52. G11C C63A  0.275
53. G11C U53C  0.28
54. G11U A15U  0.295
55. G11C C63G  0.299
56. A10U C57G  0.307
57. G11A G30U  0.32
58. G11C C24A  0.321
59. G11C A59C  0.324
60. G11C C24U  0.334
61. G11U A42C  0.342
62. G11A C24A  0.345
63. G11A A16U  0.352
64. G11C U43A  0.357
65. G11C G56U  0.359
66. G11C A59U  0.36
67. G11A C54A  0.368
68. A10U C57U  0.369
69. G11C U53A  0.381
70. G11C U61G  0.383
71. G11C U64A  0.385
72. G11C U26A  0.387
73. G11A C39A  0.405
74. G11C C39G  0.408
75. G11A A59U  0.41
76. G11C U26G  0.417
77. G11C U61A  0.424
78. G11C U64C  0.424
79. G11A C54G  0.426
80. G11C A60G  0.434
81. G11C G30C  0.435
82. G11C A16G  0.471
83. G11A G56U  0.475
84. G11U A42G  0.476
85. G11U A16U  0.48
86. A10U G14C  0.482
87. G11A C63G  0.493
88. G11C A15C  0.497
89. A10U G17U  0.512
90. G11C G30A  0.522
91. G11U A13G  0.527
92. G11C G56A  0.564
93. G11C U43C  0.571
94. G11A A16G  0.575
95. G11C C34G  0.578
96. A10U U21G  0.581
97. A10U G19U  0.589
98. G11A C39U  0.609
99. G11C C34A  0.615
100. G11C C54U  0.618
101. A10U G14A  0.622
102. G11C U44A  0.636
103. G11C A40G  0.643
104. G11A C39G  0.646
105. G11A G30A  0.663
106. G11A G30C  0.672
107. G11A U26A  0.676
108. G11A U38A  0.684
109. G11A G56A  0.708
110. G11C U38A  0.729
111. G11C U26C  0.729
112. G11A C33G  0.733
113. G11A U38C  0.733
114. G11A C63A  0.75
115. G11A G65A  0.759
116. G11A A23C  0.775
117. A10U U64C  0.778
118. G11A G65U  0.781
119. G11A A23G  0.792
120. G11C A23U  0.798
121. G11C G58A  0.82
122. G11A A52U  0.837
123. A10U C39A  0.84
124. G11C C66A  0.844
125. G11A A23U  0.855
126. G11A C35U  0.861
127. G11A A52C  0.865
128. G11C  0.872
129. G11C U49A  0.882
130. G11A C54U  0.886
131. A10U U55A  0.888
132. A10U U55G  0.888
133. A10U U62G  0.896
134. G11C G47C  0.896
135. G11C C34U  0.901
136. G11U A52G  0.901
137. G11U  0.905
138. G11C G47A  0.907
139. G11C G68A  0.907
140. G11A C33U  0.908
141. A10U U21C  0.912
142. A10U C39G  0.913
143. G11A G68U  0.915
144. G11C G47U  0.916
145. A10U U26A  0.917
146. G11C G48A  0.921
147. A10U G30A  0.922
148. G11A  0.932
149. G11A G68C  0.947
150. G11A G68A  0.956
151. A10U U38A  0.959
152. G11C G48C  0.963
153. G11A C66U  0.967
154. A10U G50A  0.978
155. G11A U67G  0.98
156. A10U C39U  0.984
157. A10U U26C  0.986
158. A10U U49A  0.989
159. A10U U38C  0.99
160. A10U G30C  0.992
161. G11A U67C  0.996
162. A10U G50C  1
163. A10U U21A  1
164. A10U U49C  1
165. A10U U49G  1.01
166. A10U U69A  1.02
167. A10U G68C  1.05

Reference: the RNAGym collection of RNA variant scans (doi:10.7554/elife.80360)
